Reference: publication PMC10592561

Molecular target: Complement C3b, human, purified (human) (UniProt P01024)
Test: SPR

With “Factor H CCP1-4, wild type (domain or fragment)” the Kd was 6.8 µM.

“Factor H CCP1-4 variant R166Q (domain or fragment)” showed a Kd of 64.4 µM.
